The results in this text go back to patent US20250215467A1, “L-THREONINE TRANSALDOLASES AND USES THEREOF” (University of Delaware, priority 2022, published 2025).

In test [1] the test system is wild-type E. coli MG1655. The test can be described thus: β-OH-nsAA biosynthesis during aerobic fermentation in wild-type E. coli MG1655. The note with it: SUMO-tagged construct, 1 mM 3, 20 h. In kind it is cell-based, Escherichia coli. The method, then:
(§1) Metabolites of interest were quantified via high-performance liquid chromatography (HPLC) using an Agilent 1260 Infinity model equipped with a Zorbax Eclipse Plus-C18 column. To quantify aldehyde and β-OH-nsAAs, an initial mobile phase of solvent A/B=95/5 was used (solvent A, water+0.1% TFA; solvent B, acetonitrile+0.1% TFA) and maintained for 5 min. A gradient elution was performed (A/B) as follows: gradient from 95/5 to 50/50 for 5-12 min, gradient from 50/50 to 0/100 for 12-13 min, and gradient from 0/100 to 95/5 for 13-14 min. A flow rate of 1 mL min-1 was maintained, and absorption was monitored at 210, 250 and 280 nm.
(§2) For screening TTA activity in aerobically growing cells, we inoculated strains transformed with plasmids expressing TTAs into 300 μL volumes of MOPS EZ Rich media in a 96-deep-well plate with appropriate antibiotic added to maintain plasmids (50 μg/mL kanamycin (Kan)). Cultures were incubated at 37° C. with shaking at 1000 RPM and an orbital radius of 1.25 mm until an OD600 of 0.5-0.8 was reached. OD600 was measured using a SPECTRAMAX® i3× plate reader. At this point, the TTAs were induced with addition of 0.2 nM aTc for TTA expression. Then, 2 h following induction of the TTAs, 1 mM aldehyde was added to the culture. Cultures were then incubated over 20 h at 30° C. with metabolite concentration measured via supernatant sampling and submission to HPLC. […]

Test [2] in a line: In vitro assay over 20 h with HPLC analysis (amino acid substrate specificity, diastereomeric excess). The class given is biochemical. The note with it: 3 as aldehyde substrate. The method, then: as §1
We performed an in vitro assay over 20 h using 3 as the aldehyde substrate and either L-Thr, Glycine (Gly), or L-Serine (L-Ser) as the candidate amino acid. Since the TTA-ADH coupled assay is specific to L-Thr, we analyzed TTA activity via HPLC with a chemically synthesized β-OH-nsAA standard for the assumed product from 3.

Test [3] concerns E. coli RARE strain. Description: β-OH-nsAA biosynthesis during aerobic fermentation in E. coli RARE strain. In kind it is cell-based, Escherichia coli. The note with it: 1 mM 3, 20 h. The method, then:
as §1, §2

Test [4] in a line: TTA-ADH coupled assay, screen of purified TTAs on 2-nitro-benzaldehyde. In kind it is biochemical. The note with it: substrate 3, TTA-ADH coupled assay. How it is done:
High-throughput screening of purified TTAs was performed with a TTA-ADH coupled assay using purified TTA and commercially available alcohol dehydrogenase from S. cerevisiae purchased from MilliporeSigma. Aldehyde stocks were prepared in 50-100 mM solutions in DMSO or acetonitrile. Reaction mixtures were prepared in a 96-well plate with 100 μL of 100 mM phosphate buffer pH 7.5, 0.5 mM NADH, 0.4 mM PLP, 15 mM MgCl2, and 100 mM L-Thr with the addition of 0.25 mM to 1 mM aldehyde depending on the background absorbance at 340 nm (Table 4), 10 U ScADH, and 0.25 μM purified TTA unless otherwise specified. Reactions were initiated with the addition of enzyme. […] The following controls were included for every assay: reaction mixture without aldehyde, without TTA, and without enzyme (TTA or ADH). Rates were calculated by identifying the linear region at the beginning of the kinetic run and converting the depletion in absorbance to the depletion of mM NADH using an NADH standard curve.
Once purified, we identified the putative TTAs with high activity and further characterized them for their L-Thr affinity and substrate scope. We first screened each purified enzyme using the TTA-ADH coupled assay with 2-nitro-benzaldehyde, 3, the best performing substrate from the screen of ObiH that was not a substrate of the ScADH. […] With this evidence as well as well-aligned, predicted AlphaFold structures, we assumed the impact of the SUMO tag would be minimal for all TTAs screened and moved forward with additional enzyme characterization.

B1: PbTTA: L-threonine transaldolase, SEQ ID NO: 16, Parachlamydiales bacterium, MBN2478762.1 (protein, listed as Parachlamydiales bacterium)
chain: METSLKDFETILHLINKEEIDSNDTIHMTANENIMSKLSKHYLKSTLSYRYHVGMFDDQKNLTVSRSCLIKNSLMLRCLSPIFLLEQQAREYVKKMFFAEYADFRPLSGMHTVFCILSTLTKPNDRVYVFTTESVGHAATVSLLKSLGRKVSFIPFCEKKLDIDLEKLSKQILIEKPNAILFDFGTPFYPLPIREIREIVGNDVKMIYDASHVLGLIAGGQFQNPLLEGCDVLIGNTHKTFPGPQKGMILYKNKSLGKEIATEIFKSAISAQHTHHAIALYVTIIEMYIHGKEYANQIIKNNHALSQALINEGFKIFKRKNQFSLSHMIAITGDFPIDHHVACADLHNSNISTNSRILYDFPAVRIGVQEVTRKGMKEKDMVQLAKFFKEIILDRKNISSKIKEFNNKFNSIEYSLDEIYEKLF
For the molecule B1, the β-OH-nsAA titer in test [1] (MG1655, 100 mM L-Thr supplemented) is 0.47 ± 0.04 mM; in test [1] (MG1655, physiological levels of L-Thr), 0.09 ± 0.01 mM; in test [3] (100 mM L-Thr) it was 0.61 ± 0.04 mM; in test [3] (natural L-Thr levels), 0.13 ± 0.01 mM. Moreover, in test [2], the “β-OH-nsAA formation using L-Ser or Gly” value is given as “no β-OH-nsAA formation”. Further, in test [4], the “activity on 2-nitro-benzaldehyde relative to ObiH” value was “comparable to or better than ObiH”.
